Source: the RNAGym collection of RNA variant scans (doi:10.1073/pnas.2313332121)

B1: TPR t1 (parent)
chain: GACCAAUCUGCCCUCAGAGCUCGAGAACAUCUUCGGAUGCAGAGGAGGCAGGCUUCGGUGGCGCGAUAGCGCCAACGUCCUCAACCUCCAAUGCAUCCCACCACAUGAUGAUGCCUGAAGAGCCUUGGUUUUUUG

Variants of: B1
Test: polymerase ribozyme fitness, log enrichment relative to wild type (log ratio); higher = more active; in vitro selection for triplet polymerase activity
How it was run: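 PCR was used to build mutant libraries for each subunit of a heterodimeric triplet polymerase ribozyme, which were then transcribed. A single in vitro selection round, in triplicate, used a frozen incubation at −7 °C and recovered extended constructs by gel excision, streptavidin beads and RT-PCR. Fitness is the logarithm of genotype enrichment relative to wild-type enrichment, averaged over replicates with inverse-variance weights. The logarithm is base 2, and after Illumina sequencing only genotypes with ≥10 input reads and ≥1 read per output were kept.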

Variant	polymerase ribozyme fitness (log ratio)
C3U A41C C70G U112C C124U	-3.32
C3U C12G C72U	-0.647
C3U G120C	0.705
C3G G120A C124G G128C	0.839
C3U C13G A90U A121C C124A	-0.103
C3U C20G	-3.47
C3U U7G A111U	-1.66
C4A C8G G36U G45U G69C U78A C114U	-5.25
C4A A6C C11G C40U G110U	-4.57
C3U G51U C80U	-2.32
C3U A43C A50G C73U	-2.2
C3G U106C C123G	-1.58
C3G A95G C101A A111C	-2.16
C4A C72G G77A G120A	-1.74
C3G C22A	-4.35
C4A C13A G17A C22U A27G A46C G52C	-6.56
C3U A27C U130C	-2.28
C3U G69U G113C	-1.33
C3U C4A	-1.77
C3U A37C C53G U55C	-1.11
C3U C13U G120A	1.11
C3U C13G G48U A50U U92C G120A U131A	-3.5
C4A C12A C86G G120U G128C	-1.61
C4A C80A	-5.24

Variant	polymerase ribozyme fitness (log ratio)
C3U U9G G19U G58C	-3.13
C3U G48U U54G G120C	0.141
C4A A29G C88A	-3.39
C3U G69U C94G C114A U125A	-3.19
C3G G36U C72G C86A C99G U112G U129C U134G	-5.02
C3G C13U G45U G48A	-2.41
C3U U7A A37C C98U	-2.2
C3U C11U A37U C53U	-0.631
C3U U92G G117U A119U	-5.83
C3U G77A A121U	2.03
C3G C102U C124A	-2.89
C3G C70G	-4.26
C3U G60A C82A U106A G120A	0.775
C3U C56A G69A C72A C101U U112A C123G	-5.58
C3U C70A C86U A118U	-1.74
C3U A18U C82A G120C	-1.8
C3U G122A	-1.01
C3U C4A U14G U32G A37G A46C C49A C53U C114G U116C	-5.66
C3U C12U C53G C56U U106A A111C C123G G127A	-5.21
C3U C11U U87A C124U	0.336
C3U U21A A41G G48U C101G C124G	-1.96
C4A A5C C13U G128C	-1.73
C4A C115U G120A U131A	-5.05
C3U C53G	-0.501

Variant	polymerase ribozyme fitness (log ratio)
C3U C123G	1.6
C3U C123A	0.564
C3U U87A A103C	-5.54
C3G C8G G10A A18U A41G G69C A121G	-4.57
C3U G57A C72U	-0.755
C3U G69U C98A G113A	-1.77
C3U C4A G51C C53A G71U A103G C114U	-5.71
C3U U130G	-0.624
C3U A27U G52U C72U C76U C85U U116G C124U U129C	-7.12
C4A A46U C88U U92A U116C	-6.04
C3U C13A A29U G44C C124G U132C	-3.39
C3U G39A U54G G120C	0.423
C4A C13U C40A G52A C104U	-2.23
C3U C8G A29G	-1.43
C3U G23C G60A U106A A111C	-6.81
C3U C12A C82A	-1.8
C4A C73A U81A	-3.04
C3G U96A	-3.4
C3U C79U	-0.681
C4A C124A	-0.256
C4A C80A C101U A121G	-1.22
C3U C56A A68G G120C	-3.32
C3G C70G C80U G128C	-1.99
C3G G93A	-2.07

Variant	polymerase ribozyme fitness (log ratio)
C3U A6C C13A	-3.09
C3U C15U U106G	-3.3
C3U U92C	-1.23
C3G C8G	-0.464
C3U U96A	-1.12
C3U G17A G36C C49A A50U G58C G60A C88U G117U	-6.3
C3G C94G C114U G128C	-2.66
C3U C28U G71A C89A C123G U130C	-4.19
C3U C22G G39U C49G C70U G110U	-5.2
C3U C62G	-2.24
C3U A43C U87G	-3
C4A C34A G71U	-4.3
C3U U125A	-1.04
C3U C22G C56U G117C	-4.66
C3U C79A G113U	-5.54
C3U U9A A27G G42U A100U U133A	-3.45
C3U C62G U106A G113A	-4.93
C3G U7G C88G C114U	-2.56
C3U C11A C15A A121U	0.659
C3U G71U A121G U125A	1.49
C3U C79A G117A	-4
C3G U109G	-5.75
C3U U78C A105C C124U	-1.78
C3U U112C	1.51

Variant	polymerase ribozyme fitness (log ratio)
C3U G44C C114A A119U G122C	-3.33
C3U G36U G63U C88U A111U C124U	-6.17
C3U C79G C97G A121G	-5.3
C3U U9C C49A G69A C115A	-0.734
C3G U112A C115A	-2.03
C3U A26U C49U A118U	-3.26
C3U A41C G42A U78C U92G	-3.33
C3U C12A A91U	-2.92
C3G C12G G120A G128U	0.37
C3U C56G G58U G113U	-4.35
C3U G39U C73A C98U	-2.51
C3U U7G C20U U21G C73U G110U C124G	-4.5
C3U C11G G63C C86U U109G U131A	-5.05
C4A C13A A27C C123G	-3.14
C3U C12A A75U U87C C124U	0.0602
C3U C49A G120A	-0.42
C3U C34A C76U G120C	-3.72
C3G G39C C53G G113U	-5.93
C3U U38A G69U U109A	-2.41
C3G C73G	-3.19
C4A A46U	-2.61
C4A A46C	-3.07
C3U U14G A26U G60U C123A	-4.1
C3G C82A	-2.49

Variant	polymerase ribozyme fitness (log ratio)
C3U C12G A46C	-0.734
C3U C8A C79U A121C	1.18
C3U C13U	-0.225
C3U U112G C114A	-3.78
C3G U112A	-0.0942
C3U A27G G42U C72U C82U C104U	-3.31
C3U C20G G113A	-1.16
C4A A27U	-3.57
C3U C86A	-0.57
C3U G113C	-2.47
C4A A27G A75G G120U	-4.55
C3U U9A C73A C79A U92G	-3.38
C3U G47A G60A C85G C123U	-2.64
C3U C62G G113A C114G A121U	-4.51
C3U C72G	-0.854
C3U C34G C73U C123U	-4.72
C3G C56A C86G C104A	-5.13
C3U C12A	-0.942
C3U G39U G47A G117A	-4.33
C4A A18G C40A C114A A119G	-3.79
C3U C34G C123U	-4.64
C3U G69A	-2.67
C3U G60A G77U G117C	-3.58
C3U C82G	-0.798

Variant	polymerase ribozyme fitness (log ratio)
C3G C64U G69A	-2.41
C3G C62U	-1.58
C3U G10U A29G G44U G57C C82U A105U G120C	-6.47
C4A C88U	-1.68
C4A C88A	-1.56
C3G U7A C11A C40A C73U C85G	-4.89
C3U U38G C62U G120A A121G G122A C123G U125C	-0.77
C3U C70A	-1.81
C3U C86U A95U U125G U126G	-3.14
C3U C115U	-1.53
C4A A46U C53G U130C	-2.39
C3G G120A	-1.23
C4A C13U C15G A37C G113A A121C	-6.02
C3U A84U	-0.78
C4A A121U U129G	0.901
C3U C73U	-0.279
C3U C11A	-1.47
C3U C11A G47A U87G	-2.77
C3G U9A G71U G110C	-5.18
C3G C20U A46G C124U	-2.93
C3U C11G U21G G113U G127A	-2.58
C4A C56G C102U	-4
C3U G110C	-4.17
